The target in this assay is T1, human nerve growth factor (human, UniProt P01138 122-241, limits assumed).
T1 construct: also called human NGF; hNGF
The assay can be described thus: binding affinity measured with the Fab fragment; method not stated at this place (general BIAcore SPR protocol in paragraph 87); Fab, not IgG. As for the experimental part: To obtain monofunctional Fab fragments, an antibody (for example, IgG) can be cleaved with papain or expressed recombinantly. […] The concentrations of the Fab proteins are determined by ELISA and/or SDS-PAGE electrophoresis using a Fab of known concentration (as determined by amino acid analysis) as a standard. […] Equilibrium dissociation constant (KD) values are calculated as koff/kₒₙ.

T1 sequence (P01138 122-241 limits assumed): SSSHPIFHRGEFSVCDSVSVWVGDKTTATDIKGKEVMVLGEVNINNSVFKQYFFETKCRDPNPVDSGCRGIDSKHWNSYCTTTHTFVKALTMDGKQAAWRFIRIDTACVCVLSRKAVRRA

B1: Fab fragment of humanized anti-NGF antibody E3 (Fab, V domains shown)
VH: QVQLQESGPGLVKPSETLSLTCTVSGFSLIGYDLNWIRQPPGKGLEWIGIIWGDGTTDYNSAVKSRVTISKDTSKNQFSLKLSSVTAADTAVYYCARGGYWYATSYYFDYWGQGTLVTVS
VL: DIQMTQSPSSLSASVGDRVTITCRASQSISNNLNWYQQKPGKAPKLLIYYTSRFHSGVPSRFSGSGSGTDFTFTISSLQPEDIATYYCQQEHTLPYTFGQGTKLEIK
notes: Full antibody E3 has a human IgG2a heavy chain constant region with A330P331 to S330S331 and a human kappa light chain constant region
As usually defined, the Kd is the constant that tells how readily two partners part at equilibrium. The low end stands for tighter binding, the high end for weaker binding. In the case of B1, the Kd is approximately 0.07 nM.

These data come from patent US20120315271A1 (Pfizer, published 2012).
